Experimental data taken from article PMC11787620 (iScience, 2025).

B1: LexAPaS125A (full-length P. aeruginosa LexA carrying the S125A mutation in the catalytic dyad) (natural protein, Pseudomonas aeruginosa (ATCC 27853), UniProt P37452 1-204, looked up)
chain: MQKLTPRQAEILSFIKRCLEDHGFPPTRAEIAQELGFKSPNAAEEHLKALARKGAIEMTPGASRGIRIPGFEPHAANDDEGLPVIGRVAAGAPILAEQNIEESCRINPAFFNPRADYLLRVRGMAMKDIGILDGDLLAVHVTREARNGQVVVARIGEEVTVKRFKREGSKVWLLAENPEFAPIEVDLKEQELIIEGLSVGVIRR
B2: LexAPa^CTD G91D (LexAPa C-terminal domain, Gly81 to Arg204, with the inactivating G91D mutation on the cleavage site) (domain or fragment, Pseudomonas aeruginosa (ATCC 27853), UniProt P37452 81-204, looked up)
chain: GLPVIGRVAADAPILAEQNIEESCRINPAFFNPRADYLLRVRGMSMKDIGILDGDLLAVHVTREARNGQVVVARIGEEVTVKRFKREGSKVWLLAENPEFAPIEVDLKEQELIIEGLSVGVIRR

Molecular target: the molecule itself
Assay: SEC

| Protein | stoichiometry N |
| --- | --- |
| B1 | 2 |
| B2 | 2 |
